Laboratory results published in article PMC7615752, “The histone chaperone SPT2 regulates chromatin structure and function in Metazoa”.

Molecular target: T1, HsSPT2 WT (Homo sapiens, UniProt Q68D10 1-685)
T1 sequence: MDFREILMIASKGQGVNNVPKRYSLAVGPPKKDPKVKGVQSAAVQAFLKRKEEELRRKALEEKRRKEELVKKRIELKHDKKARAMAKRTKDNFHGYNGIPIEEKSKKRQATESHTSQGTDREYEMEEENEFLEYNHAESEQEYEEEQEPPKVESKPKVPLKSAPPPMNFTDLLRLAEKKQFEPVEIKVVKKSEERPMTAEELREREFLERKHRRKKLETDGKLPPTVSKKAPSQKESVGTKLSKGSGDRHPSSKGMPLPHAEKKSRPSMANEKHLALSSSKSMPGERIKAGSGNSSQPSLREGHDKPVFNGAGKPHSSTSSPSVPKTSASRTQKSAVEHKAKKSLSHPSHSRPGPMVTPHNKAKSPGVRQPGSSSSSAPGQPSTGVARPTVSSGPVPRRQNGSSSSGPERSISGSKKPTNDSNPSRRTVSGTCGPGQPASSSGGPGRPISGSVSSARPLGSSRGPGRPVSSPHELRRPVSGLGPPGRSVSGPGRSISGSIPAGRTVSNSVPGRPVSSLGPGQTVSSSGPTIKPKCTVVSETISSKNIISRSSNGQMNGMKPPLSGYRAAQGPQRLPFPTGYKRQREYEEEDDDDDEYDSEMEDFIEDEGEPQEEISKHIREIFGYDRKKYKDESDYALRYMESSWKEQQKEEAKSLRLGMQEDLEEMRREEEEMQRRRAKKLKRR
Assay: EMSA; 1 mM EDTA; 10 nM DNA; 25 mM Tris-HCl pH 8.0, 55 mM NaCl, 1 mM EDTA, 1 mM DTT, 0.1 mg/ml BSA, 1% glycerol, 37 C 15 min; native 8% PAGE
Conditions: protein: recombinant; tags: His6; label: 5'-32P; four-way junction of 4 x 40 nt strands, each arm 20 bp

B1: synthetic cruciform DNA (four-way Holliday junction J3b/J3h/J3r/J3x(40)) (structured_DNA)
DNA 1: AGGGATCCGTCCTAGCAAGGGGCTGCTACCGGAAGCTTAC
DNA 2: GTAAGCTTCCGGTAGCAGCCTGAGCGGTGGTTGAATTCAC
DNA 3: GTGAATTCAACCACCGCTCAACTCAACTGCAGTCTAGAAC
DNA 4: GTTCTAGACTGCAGTTGAGTCCTTGCTAGGACGGATCCCT
binding result: binds
